Experimental findings from the DeepSol protein solubility set are described below.

This series can be described thus: soluble on expression in E. coli; label from the status in PepcDB or PDB records.
Regarding “MTISLRRTGILKFGIGLVALTIAASVQAKTLVYCSEGSPEGFNPQLFTSGTTYDASSVPIYNRLVEFKIGTTEIEPSLAERWEVSEDGKTYTFYLRKGVKWQDNKDFKPTRDFNADDVIYSFMRQKDDKNPYHKVSGGSYEYFQGMGMGDLITNVVKVDDNTVRFELTRPESPFLADLAMDFASILSAEYADNMLKAGTPEKVDLNPIGTGPFQLQQYQKDSRILYKAFPGFWGTKPKIDRLVFSITPDASVRYAKLQKNECQIMPYPNPADIARMKEDKTINLMEQPGLNVGYLSFNIEKKPLDNLKVRQALTMAVNKDAIIDAVYQGAGQAAKNLIPPTMWGYNDDVKDYAYDPAKAKELLKEAGLPDGFSIDLWAMPVQRPYNPNARRMAEMIQSDWAKIGVKAKIVTYEWGEYLKRAKDGEHETVMMGWTGDNGDPDNFFATLFSCDAAKQGSNYSKWCYKPFEDLIQPARAEADHDKRVALYKQAQVVMNEQAPALIIAHSTVYEPVRKEVKGYVVDPLGKHHFDNVSLD”, the “soluble on expression in E. coli” value is recorded as “not soluble”.

Turning to “MTITPNKLTLKIGRAEGRPGDTVEIPVNLYGVPQKGIASGDFVVSYDPNVLEIIEIEPGELIVDPNPTKSFDTAVYPDRKMIVFLFAEDSGTGAYAITEDGVFATIVAKVKEGAPEGFSAIEISEFGAFADNDLVEVETDLINGGVLVTNKPVIEGYKVSGYILPDFSFDATVAPLVKAGFKVEIVGTELYAVTDANGYFEITGVPANASGYTLKISRATYLDRVIANVVVTGDTSVSTSQAPIMMWVGDIVKDNSINLLDVAEVIRCFNATKGSANYVEELDINRNGAINMQDIMIVHKHFGATSSDYDAQLEHHHHHHMRGSHHHHHHTDLRADKASSIELKFDRNKGEVGDILIGTVRINNIKNFAGFQVNIVYDPKVLMAVDPETGKEFTSSTFPPGRTVLKNNAYGPIQIADNDPEKGILNFALAYSYIAGYKETGVAEESGIIAKIGFKILQKKSTAVKFQDTLSMPGAISGTQLFDWDGEVITGYEVIQPDVLSLGDEPF”, the “soluble on expression in E. coli” value was “soluble”.

Consider “MTIYNINFGIGWASSGVEYAQAYRAKLLRRTNQDTKFVFLDFIQSENIQTLTQNIGFKDQEVIWLYQYFSDISLAPTTYTLDDIERELGHDISFRERNGKIVRLYFNGKSSFVTCYLQNEQKDIVDRAEFVINSMLVRKDFYSYTRIFSEYYAPADNKAKLYMRQFYNQDGSIAYNEYIDGDSSIYVFEDAVLYNKTEFIAYFLQRLNLTRDDIVILDRASDIGQAVLQHKGDSKVGVVIHADHYSNNMMSEQHILWNNYYEYQFSKAKYIDFFITATDIQNHMVCRQFEQYQGYRPRVYTIPVGSIDALSYPTLSRKPYAMISASRLANEKHIDWLVKAVIVAKRQVPELTFDIYGEGSEKTRLRKIIDTHRAQDYIRLLGHVKLDEIYNDYELFLSASTSEGFGLTLMEAVGSGLGMIGLNVNYGNPTFIRDGENGYLVPFDTDEDSVDDVIAKLAHAIVMYFNNGPQTPHDISYEVAQQFMTQDIILKWETLVQEVLHD”, for which the “soluble on expression in E. coli” value is “not soluble”.

With “MTKAFDAFERAIRDAEDLLARHDAEKTVPNGHNGEVLKRAGLVMALAAWETYVKDRLQSEIDTWLQAVEGSPLGKFVRRRLEEDLKRFFNPNDERTRRIFIDYFDVDITKDWVWENYDSSTSKKVLDSLVAKRGDAAHKANTALHASAEPHKVKRDELEKGIRFLKGLVAATEKAKITK”, the “soluble on expression in E. coli” value is “not soluble”.

As to “MTKAMTAHDYLPLIEKIRKRISSWTGRFLSYCGRLQLIKSVLMSITNFWSSAFRLPGNCMKEIERLCSAFLWSGPDLKTHNAKIAWSKVCLPMCEGGLGLRPLKEINTVCGLKLIWRLLASQTSLWGQWVQTYLIRRNNFWAIKASSYQGSWMWRKLLTLRDVARSFHKKEIHNGRNTSFWYDHWSSMGTLVDVLGARGCIDLGITTTTNMENVFTTRRSRKHRGDLLVRIEAEIEAAKTRHQPDIEDIDLWKPSTGYKKTFSTRETWKLIRMAEPVCEWAKGVWFPKPHQNLLSLLGWVCTIVFQQGTECKSGTAKLTLLAFSAKTLWKQEITYSSTVTTPIKFGKL”, the “soluble on expression in E. coli” value was “not soluble”.

As for “MTKCSIIIGIFLIAAINGQASKRRIQYESVSQFLFHNSKLCGDPFSDAVWLPVLDLCSIECEITSEYCVENEELTQQCKKLPEDCQALLRKAIKQIQRHIRSQKPVYL”, the “soluble on expression in E. coli” value is given as “not soluble”.

In the case of “MTKMSITVNQTVLHQLVKNVDGDSIKMESVLRDELLSITPEVEQMMLQLHQSYQNKAKAFGVFQEKSIFAQHLNRLLEQEIEFLGFSQYSTKLLADELGKYNFAESGTLILCQYNFLATDYLFIALLDSRHSMLVDEHLDIRRTEYLDITQFDIAARINLTDLQVNANSNRYLTFIKGRVGRKISDFFMDFLGAEEGLNPQVQNQCLLQAVSDYCDQGELNKEQTQAVKKQVFEYCKGQLSNGNNIELRELSDSLPTLNEQPFVVFTEKQNYGLEESIPPIRSTLKSLTKFSGSGKGVTLSFDAELLNTRIQWDPMTDTLTIKGLPPNLKDQLQKALKSENLEHHHHHH”, the “soluble on expression in E. coli” value is “soluble”.

Consider “MTKNPRNNKPKKILDSSYKSKTIWQNYIDALFETFPQLEISEVWAKWDGGNVTKDGGDAKLTANIRTGEHFLKAREAHIVDPNSDIYNTILYPKTGADLPCFGMDLMKFSDKKVIIVFDFQHPREKYLFSVDGLPEDDGKYRFFEMGNHFSKNIFVRYCKPDEVDQYLDTFKLYLTKYKEMIDNNKPVGEDTTVYSDFDTYMTELDPVRGYMKNKFGEGRSEAFVNDFLFSYK”, for which the “soluble on expression in E. coli” value is given as “soluble”.

For the sequence “MTKRGLGKGLDALLATSSLAREKQQVASLSQSMSAEGELADLSISNLKPGIYQPRKDLSPEALEELAASIQSQGIIQPIVVRHLPTGGYEIIAGERRWRAAKQAGLKQVPCLIKQVEDRGAIAMALIENIQREDLNAMEEAQALERLQNEFNLTHQQVAEVIGKSRTTVTNLLRLNQLSDDVKRLLETKQLEMGHARALLMLEGEQQVEIAQQVAKKQLTVRQTEQLVKKCLSDPSDAKNVSEDLEIQQLSQNLSEKLAAKVSIVRTPNGKSKVTISLDEPHKLELLIAKLQN”, the “soluble on expression in E. coli” value is recorded as “not soluble”.

As for “MTKSLESVSFKDVTVDFSRDEWQQLDLAQKSLYREVMLENYFNLISVGCQVPKPEVIFSLEQEEPCMLDGEIPSQSRPDGDIGFGPLQQRMSEEVSFQSEININLFTRDDPYSILEELWKDDEHTRKCGENQNKPLSRVVFINKKTLANDSIFEYKDIGEIVHVNTHLVSSRKRPHNCNSCGKNLEPIITLYNRNNATENSDKTIGDGDIFTHLNSHTEVTACECNQCGKPLHHKQALIQQQKIHTRESLYLFSDYVNVFSPKSHAFAHESICAEEKQHECHECEAVFTQKSQLDGSQRVYAGICTEYEKDFSLKSNRQKTPYEGNYYKCSDYGRAFIQKSDLFRCQRIHSGEKPYEYSECEKNLPQNSNLNIHKKIHTGGKHFECTECGKAFTRKSTLSMHQKIHTGEKPYVCTECGKAFIRKSHFITHERIHTGEKPYECSDCGKSFIKKSQLHVHQRIHTGENPFICSECGKVFTHKTNLIIHQKIHTGERPYICTVCGKAFTDRSNLIKHQKIHTGEKPYKCSDCGKSFTWKSRLRIHQKCHTGERHYECSECGKAFIQKSTLSMHQRIHRGEKPYVCTECGKAFFHKSHFITHERIHTGEKPYECSICGKSFTKKSQLHVHQQIHTGEKPYRCAECGKAFTDRSNLFTHQKIHTGEKPYKCSDCGKAFTRKSGLHIHQQSHTGERHYECSECGKAFARKSTLIMHQRIHTGEKPYICNECGKSFIQKSHLNRHRRIHTGEKPYECSDCGKSFIKKSQLHEHHRIHTGEKPYICAECGKAFTIRSNLIKHQKIHTKQKPYKCSDLGKALNWKPQLSMPQKSDNGEVECSMPQLWCGDSEGDQGQLSSI”, the “soluble on expression in E. coli” value is “soluble”.

For the sequence “MTKTVEMVITGAQVLNVYTREFEATSLWIDHGRIISNLRDEPYIAAQHVDATGQWIVPGMIDAHVHMESSMVAPSELGKVLLQHGVTTIATDPHELANVAGLEHHHHHH”, the “soluble on expression in E. coli” value is listed as “not soluble”.

In the case of “MTLDVGPEDELPDWAAAKEFYQKYDPKDVIGRGVSSVVRRCVHRATGHEFAVKIMEVTAERLSPEQLEEVREATRRETHILRQVAGHPHIITLIDSYESSSFMFLVFDLMRKGELFDYLTEKVALSEKETRSIMRSLLEAVSFLHANNIVHRDLKPENILLDDNMQIRLSDFGFSCHLEPGEKLRELCGTPGYLAPEILKCSMDETHPGYGKEVDLWACGVILFTLLAGSPPFWHRRQILMLRMIMEGQYQFSSPEWDDRSSTVKDLISRLLQVDPEARLTAEQALQHPFFERCEGSQPWNLTPRQRFRVAVWTVLAAGRVALSTHRVRPLTKNALLRDPYALRSVRHLIDNCAFRLYGHWVKKGEQQNRAALFQHRPPGPFPIMGPEEEGDSAAITEDEAVLVLG”, the “soluble on expression in E. coli” value is on record as “soluble”.

“MTLEEARKRVNELRDLIRYHNYRYYVLADPEISDAEYDRLLRELKELEERFPELKSPDSPTLQVGARPLEATFRPVRHPTRMYSLDNAFNLDELKAFEERIERALGRKGPFAYTVEHKVDGLSVNLYYEEGVLVYGATRGDGEVGEEVTQNLLTIPTIPRRLKGVPERLEVRGEVYMPIEAFLRLNEELEERGERIFKNPRNAAAGSLRQKDPRITAKRGLRATFYALGLGLEEVEREGVATQFALLHWLKEKGFPVEHGYARAVGAEGVEAVYQDWLKKRRALPFEADGVVVKLDELALWRELGYTARAPRFAIAYKFPAEEKETRLLDVVFQVGRTGRVTPVGILEPVFLEGSEVSRVTLHNESYIEELDIRIGDWVLVHKAGGVIPEVLRVLKERRTGEERPIRWPETCPECGHRLLKEGKVHRCPNPLCPAKRFEAIRHFASRKAMDIQGLGEKLIERLLEKGLVKDVADLYRLRKEDLVGLERMGEKSAQNLLRQIEESKKRGLERLLYALGLPGVGEVLARNLAARFGNMDRLLEASLEELLEVEEVGELTARAILETLKDPAFRDLVRRLKEAGVEMEAKEKGGEALKGLTFVITGELSRPREEVKALLRRLGAKVTDSVSRKTSYLVVGENPGSKLEKARALGVPTLTEEELYRLLEARTGKKAEELV”: the “soluble on expression in E. coli” value is “soluble”.

As to “MTLPPDAPSRHRLVHALERTADLLDILGGEDFKSRAYRSAARSLEELNEETPELLAREFTGIPKVGKGIAAELSDFARSGTFAPLEAAAGQLPPGLLDLLGVRGLGPKKIRSLWLAGIDSLERLREAAESGELAGLKGFGAKSAATILENVVFLFEARQRQSLRAGLAVAEELAGALTDLSPAPAGDVRRGLETVRAAELTVTGTPDDVLARLPELTVQGDGVLSGDYEGVPVEIACAPAEARGALDLLRSGEHFAGQVQAAAQARGFTLTAGGLSRGDEVLPTPTEAVVFHALDLPFRPAEYREPEHDDLWQTLPDPAELVTVGDLRGMIHTHSTWSDGGASIREMAEATLTLGHEFLGTADHSRAAYYANGLTIERLREQLKEIRELQRAGLPIVAGSEVDILDDGSLDFPDDVLGELDYVVVSVHSNFTLDAARQTERLIRAVSHPLVTVLGHATGRLLLRRPGYALDLDAVLGACEANGTVVEINANAARLDLDWREALRWRERLKFAINTDAHVPGGLRDARYGVMQARKAGLTPAHVVNSLGRAEFLDFVARQRAARGAPGPADRAHHHHHH”, the “soluble on expression in E. coli” value was “soluble”.

Take “MTLPPVGSTLYSKGTHNYKGLFKECATVGSTLYSKGTHNDADNVPVLRLVGSTLYSKGTHNSRLARPPTRLVGSTLYSKGTHNMILDWWLGRWNVQ”: the “soluble on expression in E. coli” value is “not soluble”.

Turning to “MTLRYEIFPVTPFRQNCTLIWDDESGEAVLTDVGGDVPFLLQALANRKLTLTAIWLTHGHLDHAGGVVEMLKTHKVPVLGPHPDDEFLLQSLPQTTAQYGFPVSPAFAPNRWLEEGETLTVGRYAFQVLHIPGHTPGHIVFYCAEAELLIAGDVLFYETIGRTDFPRGNHADLINNIRNKLFTLPETVQVVAGHGRMTSIGHEKRHNPFF”, the “soluble on expression in E. coli” value is reported as “not soluble”.
